Our source for the ELISA_avg values is patent US20230125550A1 (ARCELLX, published 2023).

Numbering of substitutions follows the chain as printed.

For this experiment, the target named is HER2 (Homo sapiens (Human), UniProt P04626 23-652). In words: phage ELISA, A450 target/A450 IgG1-Fc. A digest of the protocol:
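Phage rescued with VCSM13 helper phage from phagemid colonies picked from panning output were tested on plates coated with goat anti-human IgG1-Fc antibody that carried either recombinant human target or IgG1-Fc. Bound phage were detected with HRP-conjugated anti-M13 antibody at 450 nm. The ELISA ratio is target absorbance over IgG1-Fc absorbance, averaged across all screened wells holding the clone.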
(In general: In an ELISA, binding on a coated surface is turned into a signal by an enzyme label.)

B1: SEQ ID NO 949 (designed binder)
chain: MGSWWEFNVRLSAIRYRLLALGGSEAELAAFEKEIAAFESELQAYKGKGNPEVEDLRASAAQIRAMLQAYRHN
Regarding B1, the ELISA_avg turned out to be 6.73 ratio.

B2: SEQ ID NO 950 (designed binder)
chain: B1 chain with V9M, R15K, L19Y, D55I, A58R, S59L, Q62D, A65E, M66R
In the case of B2, the ELISA_avg amounted to 3.08 ratio.
